The target in experiment [1] is human wild type PCSK9-V5 (prosegment≡PCSK9 complex) in conditioned medium (human) (UniProt Q8NBP7).
The target is the same in experiment [2]. The source holds these as a separate data set.
Experiment [3] has as its target PCSK9 D374Y-V5 (gain-of-function natural mutant) (human) (UniProt Q8NBP7).
The target of experiment [4] is PCSK9 Δ33-58 D374Y-V5 (human) (UniProt Q8NBP7).
Experiment [5] concerns the target PCSK9 Δ33-58-V5 (lacking the acidic N-terminal region of the prosegment) (human) (UniProt Q8NBP7).
For experiment [6], the target named is human wild type PCSK9-V5 (prosegment≡PCSK9 complex) in conditioned medium (human) (UniProt Q8NBP7). The source holds these as a separate data set.

As to “Fcpro (Fc of human IgG1, hinge of human IgG1 and PCSK9 prosegment aa 31-152) (from UniProt Q8NBP7 31-152) (Fc fusion)”, the reduction by Fcpro (3 µg/ml, pre-incubated with 1 µg/ml PCSK9, both in HEK293 conditioned media) of the LDLR degradation induced by extracellular PCSK9 in HepG2/shPCSK9 cells, 4 h at 37°C in experiment [1] was 60%.

“Fcpro expressed in HepG2/shPCSK9 cells (from UniProt Q8NBP7 31-152) (Fc fusion)”: in experiment [2], the reversal by co-expressed Fcpro (DNA ratio PCSK9:Fcpro 1:3; ratios up to 1:9 gave no more) of the ∼44% LDLR degradation induced by PCSK9; total LDLR by Western blot of cell lysates is 75%. Also, in experiment [3], the total LDLR level (normalised to β-actin) in HepG2/shPCSK9 cells co-expressing Fcpro and PCSK9 D374Y, against 0.1 with D374Y alone (relative LDLR level) stood at 0.44. In experiment [4], this substance displayed a total LDLR level (normalised to β-actin) in HepG2/shPCSK9 cells co-expressing Fcpro and PCSK9 Δ33-58 D374Y, against 0.08 with Δ33-58 D374Y alone (relative LDLR level) of 0.31. Besides, the fold increase of total LDLR on co-expression of Fcpro with PCSK9 Δ33-58 in HepG2/shPCSK9 cells in experiment [5] is 1.4 fold. The same substance yielded a fold increase of total LDLR on co-expression of Fcpro with wild type PCSK9 in HepG2/shPCSK9 cells in experiment [6] of 1.4 fold.

The record behind these values is publication PMC3741231.
